# Data from patent US20200148774A1 (Genentech, published 2020).
# Numbering of substitutions follows the chain as printed.
# T1: human CLL-1 on cells (endogenous on HL-60, EOL-1 and other AML cell lines and CD14+ monocytes); recombinant on … (human, UniProt Q5QGZ9 1-265)
# T1 sequence: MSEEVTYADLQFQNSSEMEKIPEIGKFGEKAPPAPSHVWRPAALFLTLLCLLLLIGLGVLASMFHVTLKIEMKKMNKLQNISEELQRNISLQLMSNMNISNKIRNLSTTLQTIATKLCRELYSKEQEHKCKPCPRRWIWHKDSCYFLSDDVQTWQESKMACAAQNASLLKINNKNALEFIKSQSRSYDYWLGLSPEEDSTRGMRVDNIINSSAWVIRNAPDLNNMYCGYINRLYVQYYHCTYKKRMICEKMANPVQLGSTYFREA
# T2: recombinant cynomolgus CLL-1 extracellular domain (ECD, amino acids 65-265) fused to an N-terminal Flag (cynomolgus monkey)
# T2 construct: Construct stated for the immunogen; also called CynoCLL-1 Flag; cynoCLL-1
# T2 chain: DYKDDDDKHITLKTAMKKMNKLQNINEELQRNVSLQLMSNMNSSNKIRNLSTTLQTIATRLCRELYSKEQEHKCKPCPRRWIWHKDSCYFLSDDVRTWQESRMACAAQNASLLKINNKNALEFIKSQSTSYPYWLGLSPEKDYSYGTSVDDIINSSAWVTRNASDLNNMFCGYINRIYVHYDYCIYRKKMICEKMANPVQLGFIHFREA
# T3: recombinant human CLL-1 extracellular domain (ECD, amino acids 65-265) fused to an N-terminal Flag (human, UniProt Q5QGZ9 65-265)
# T3 construct: The construct and the K244Q SNP are stated for the immunogen; they are not written as a piece; also called huCLL-1-Flag; huCLL-1
# T3 chain: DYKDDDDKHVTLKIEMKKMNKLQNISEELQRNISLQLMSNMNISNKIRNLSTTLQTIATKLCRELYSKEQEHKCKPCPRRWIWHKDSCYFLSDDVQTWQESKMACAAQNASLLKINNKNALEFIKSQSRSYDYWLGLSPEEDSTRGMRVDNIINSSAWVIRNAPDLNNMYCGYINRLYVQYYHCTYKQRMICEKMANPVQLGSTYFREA
# B1: h6E7 (6E7.L4H1e)×38E4v1 TDB (bispecific antibody, V domains shown)
# VH 1: EVQLVQSGAEVKKPGASVKVSCKASGYSFTDYYMHWVRQAPGQGLEWIGRINPYNGAAFYSQNFKDRVTLTVDTSTSTAYLELSSLRSEDTAVYYCAIERGADLEGYAMDYWGQGTLVTVSS
# VL 1: DIQMTQSPSSLSASVGDRVTITCRASQSVSTSSYNYMHWYQQKPGKPPKLLIKYASNLESGVPSRFSGSGSGTDFTLTISSLQPEDFATYYCQHSWEIPLTFGQGTKVEIK
# VH 2: EVQLVQSGAEVKKPGASVKVSCKASGFTFTSYYIHWVRQAPGQGLEWIGWIYPENDNTKYNEKFKDRVTITADTSTSTAYLELSSLRSEDTAVYYCARDGYSRYYFDYWGQGTLVTVSS
# VL 2: DIVMTQSPDSLAVSLGERATINCKSSQSLLNSRTRKNYLAWYQQKPGQSPKLLIYWTSTRKSGVPDRFSGSGSGTDFTLTISSLQAEDVAVYYCKQSFILRTFGQGTKVEIK
# B2: h21C9 (h21C9.L2H3)×38E4v1 TDB (bispecific antibody, V domains shown)
# VH 1: EVQLVQSGAEVKKPGASVKVSCKASGYTFTDYYLDWVRQAPGQGLEWIGRVNPYNGGTIYNQKFKGRVTLTRDTSTSTAYLELSSLRSEDTAVYYCARDHYRYDPLLDYWGQGTLVTVSS
# VL 1: DIQMTQSPSSLSASVGDRVTITCKASQDVSTAVAWFQQKPGKAPKLLIYSPSYRYTGVPSRFSGSGSGTDFTLTISSLQPEDFATYYCQQLYSTPYTFGQGTKVEIK
# VH 2: B1 VH 2
# VL 2: B1 VL 2
# B3: 6E7.L4H1eA54×38E4v1 TDB (bispecific antibody, V domains shown)
# VH 1: B1 VH 1 with N55A
# VL 1: B1 VL 1
# VH 2: B1 VH 2
# VL 2: B1 VL 2
# B4: 20B1×38E4v1 TDB (bispecific antibody, human IgG1, V domains shown)
# VH 1: EVQLQQSGPELVKPGALVKISCKASGYTFTSYDINWLKQRPGQGLEWIGWIYPGDGTTEYNERFKGKATLTADKSSSTAYLQLSSLTSENSAVYFCARSYDYDYAMDYWGQGTSVTVSS
# VL 1: DIVLTQSPAIMSASPGEKVTMTCSASSSISYMYWYQQKPGTSPKRWIYDTSKLASGVPARFSGSGSGTSYSLTISSMEAEDAATYYCHQRSSWTFGGGTKLEIK
# VH 2: B1 VH 2
# VL 2: B1 VL 2
# B5: 28H12×38E4v1 TDB (bispecific antibody, human IgG1, V domains shown)
# VH 1: QVQLQQSGAELVKPGASVKLSCTASGFNIKDTYMHWVKQRPEQGLEWIGRIDPANGDTDYDPKFQGKATVTADTSSNTAYLQLSSLTSEDTAVYYCTISGPPYYVMDYWGQGTSVTVSS
# VL 1: DIQMTQSPASLAVSLGQRATISCRASQSVSSSSYSYMHWYQQKPGQPPKLLIKYASNLESGVPARFSGRGSGTDFTLNIHPVEEEDTATYYCQHSWEIPYTFGGGTRLEIK
# VH 2: B1 VH 2
# VL 2: B1 VL 2
# B6: 6E7.L4H1eD54 (antibody, V domains shown)
# VH: B1 VH 1 with N55D
# VL: B1 VL 1
# notes: IgG; also called h6E7D; H6E7.L4H1D54
# B7: 38E4v1 Fab (Fab, V domains shown)
# VH: B1 VH 2
# VL: B1 VL 2
# notes: Fab; also called 38E4v1 (Fab Biacore measurements)
# B8: ch20B1 (antibody, V domains shown)
# VH: B4 VH 1
# VL: B4 VL 1
# notes: chimeric version of m20B1, human IgG; also called chimeric 20B1; 2061 [sic]
# B9: humanized 6E7 variant CDRs graft+K49(LC)+(A67, L69, V71, K73 (HC)) (antibody, V domains shown)
# VH: B1 VH 1 with V68A, T74K
# VL: B1 VL 1
# B10: humanized 21C9 variant CDRs graft+(F36 and S43(LC))+L69 (HC) (antibody, V domains shown)
# VH: B2 VH 1
# VL: B2 VL 1 with A43S
# What was measured:
# [1] = target: T1, human CLL-1 on cells (endogenous on …); assay: cell-based or functional assay
# [2] = target: T1, human CLL-1 on cells (endogenous on …); assay: cell-based or functional assay; remark: listed apart in the source
# [3] = target: T1, human CLL-1 on cells (endogenous on …); assay: cell-based or functional assay; remark: listed apart in the source
# [4] = target: T2, recombinant cynomolgus CLL-1 …; assay: affinity column of the TDB summary table (rounded Biacore KD of the second the 8th table / the 4th table tables)
# [5] = target: T3, recombinant human CLL-1 extracellular …; assay: as above
# [6] = target: T2, recombinant cynomolgus CLL-1 …; assay: SPR (Biacore T200), IgG captured by anti-human Fc, CLL-1 as analyte
# [7] = target: T3, recombinant human CLL-1 extracellular …; assay: as above
# hCD3ε = target: T4, hCD3ε (human, UniProt P07766 23-126); assay: SPR (Biacore), Fab
# T4 construct: Also used for the value printed only as 'hCD3 (0.05 nM'); also called human CD3ε polypeptide
# [8] = target: T2, recombinant cynomolgus CLL-1 …; assay: SPR (Biacore), chimeric IgG captured by anti-human IgG, CLL-1 as analyte
# Experimental: (§1) The chimeric anti-CLL-1 human IgG were captured by mouse anti-human IgG coated on the CM5 sensor chip. […] Association rates (kon) and dissociation rates (koff) were calculated using a simple one-to-one Langmuir binding model. The equilibrium dissociation constant (KD) was calculated as the ratio koff/kon.
# [9] = target: T3, recombinant human CLL-1 extracellular …; assay: as above
# Experimental: as §1
# [10] = target: T3, recombinant human CLL-1 extracellular …; assay: SPR (Biacore T200), IgG captured by anti-human Fc, human CLL-1 as analyte
# Experimental: The binding affinity of the antibodies in this section was determined by BIAcore™ T200 Format. Briefly, BIAcore™ research grade CM5 chips were activated with 1-ethyl-3-(3-dimethylaminopropyl) carbodiimide (EDC) and N-hydroxysuccinimide (NHS) reagents according to the supplier's instructions. Goat anti-human Fc IgGs were coupled to the chips to achieve approximately 10,000 response units (RU) in each flow cell. Unreacted coupling groups were blocked with 1M ethanolamine. For kinetics measurements, antibodies were captured to achieve approximately 300 RU. Three-fold serial dilutions of human CLL-1 was injected in HBS-P buffer (0.01M HEPES pH7.4, 0.15M NaCl, 0.005% surfactant P20) at 25° C. with a flow rate of 30 μl/min. Association rates (kon) and dissociation rates (koff) were calculated using a 1:1 Langmuir binding model (BIAcore™ T200 Evaluation Software version 2.0). The equilibrium dissociation constant (Kd) was calculated as the ratio koff/kon.
# T4 sequence (P07766 23-126): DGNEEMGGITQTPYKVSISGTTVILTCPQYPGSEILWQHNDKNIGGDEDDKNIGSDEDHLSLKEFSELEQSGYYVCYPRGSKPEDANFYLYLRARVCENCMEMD
binder,measurement,setting,value
B1,"average killing EC50, EOL-1 (n = 5)",[1],0.0041 mg/L
same,"average killing EC50, HL-60 (n = 2)",[1],0.104 mg/L
same,"average killing EC50, ML-2",[1],0.0025 mg/L
same,"average killing EC50, Molm-13 (lowest expressor of CLL-1)",[1],0.023 mg/L
same,"average killing EC50, NOMO-1",[1],0.0122 mg/L
same,"average killing EC50, PL-21",[1],0.0059 mg/L
same,"average killing EC50, THP-1 (n = 3)",[1],0.0036 mg/L
same,"average killing EC50, U937",[1],0.0021 mg/L
same,"average killing EC50, human autologous CD14+ (n = 3)",[1],2.8 ng/ml
same,EC50 for killing target cells (EOL-1),[2],0.0091 mg/L
same,EC50 for killing target cells (THP-1),[2],0.0054 mg/L
same,EC50 of killing of EOL-1 (other donors),[2],0.0074 mg/L
same,EC50 of killing of EOL-1 target cells by cynomolgus pan-T cells,[2],~0.005 mg/L
same,EC50 of killing of HL-60 (other donors),[2],0.0956 mg/L
same,"Cell killing EC50 (EOL-1 cells, human CD8+ T cells)",[3],0.014 mg/L
B2,"average killing EC50, EOL-1",[1],0.0511 mg/L
same,"average killing EC50, HL-60",[1],1.76 mg/L
same,"average killing EC50, human autologous CD14+",[1],14.8 ng/ml
same,EC50 of killing of EOL-1 (other donors),[2],0.0163 mg/L
B3,"Cell killing EC50 (EOL-1 cells, human CD8+ T cells)",[3],0.034 mg/L
B4,"Cell killing EC50 (EOL-1 cells, human CD8+ T cells)",[3],0.531 mg/L
B5,"Cell killing EC50 (EOL-1 cells, human CD8+ T cells)",[3],> 1 mg/L
B6,Kd,[4],48.7 nM
same,Kd,[5],113 nM
same,Kd,[6],48.7 nM
same,koff,[6],0.00869 s⁻¹
same,kon,[6],178000 M⁻¹ s⁻¹
same,Kd,[7],113 nM
same,koff,[7],0.0344 s⁻¹
same,kon,[7],304000 M⁻¹ s⁻¹
B7,Kd,hCD3ε,0.389 nM
same,koff,hCD3ε,0.00317 s⁻¹
same,kon,hCD3ε,8.15e+06 M⁻¹ s⁻¹
B8,Kd,[4],6.1 nM
same,Kd,[5],4.5 nM
same,Kd,[8],6.1 nM
same,koff,[8],0.0012 s⁻¹
same,kon,[8],190000 M⁻¹ s⁻¹
same,Kd,[9],4.5 nM
same,koff,[9],0.001 s⁻¹
same,kon,[9],220000 M⁻¹ s⁻¹
B9,Kd,[10],1.4 nM
B10,Kd,[10],10.5 nM
